Experimental data reported in paper PMC3625871.

Biological target: T1, AtVOZ2m (Arabidopsis thaliana, UniProt Q9SLB9 1-450, C249A;H253A)
T1 sequence: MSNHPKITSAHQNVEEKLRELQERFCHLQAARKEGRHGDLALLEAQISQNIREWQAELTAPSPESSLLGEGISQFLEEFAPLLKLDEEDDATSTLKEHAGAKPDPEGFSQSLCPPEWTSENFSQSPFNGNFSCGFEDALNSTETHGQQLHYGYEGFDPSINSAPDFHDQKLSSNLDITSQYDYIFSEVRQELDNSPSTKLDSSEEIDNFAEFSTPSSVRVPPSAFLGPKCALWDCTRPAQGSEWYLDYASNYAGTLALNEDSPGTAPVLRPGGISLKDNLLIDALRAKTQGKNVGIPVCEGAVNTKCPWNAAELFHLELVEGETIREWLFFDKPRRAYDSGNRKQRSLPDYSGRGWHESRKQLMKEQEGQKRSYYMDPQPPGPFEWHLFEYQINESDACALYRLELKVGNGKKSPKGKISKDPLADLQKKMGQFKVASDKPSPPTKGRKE
Experiment: EMSA

B1: pMOS3 (dsDNA)
DNA 1: GACGTCCGGCGCAGCGTTTATCAGACGCTGGGATTAAAACA
DNA 2: TGTTTTAATCCCAGCGTCTGATAAACGCTGCGCCGGACGTC
**Q.** Does B1 bind?
**A.** no binding
